# Laboratory results from paper doi:10.1101/190033 (bioRxiv, 2017).
# B1: Leeuwenhoekiella blandensis class I ribonucleotide reductase catalytic subunit NrdAi (NrdA) (enzyme, Leeuwenhoekiella blandensis MED217, UniProt A3XHF8 1-600, looked up)
# chain: MRENTTKLENSTETNVQHTKDNDLLKARRDALQDATEKNTDEPSFDWLTEHSRSFLAAGYLSEGVSAEERIREIADRAEEILRMPGFSDKFYKYMGEGYFSLASPVWSNFGKKRGLPISCFGSHIDDDMGNILYTQSEVGMMSKLGGGTSGYFGKIRHRGAAVKNNGYASGAVHIMQLFDKMVDVVSQGSVRRGRFSPYLPISHPDIKEFLEIGTEGNSIQQLTHGVTVDSTWMQEMIDGDTDKREVWAKVLQRRGEMGYPYIFYTDNANNGKPDVYKDKGHDIYASNLCTEIMLPSSDEWSFVCVLSSINVLHYDKWKNTDAVETMVCFLDAVLTEFIDKLEEYRDSDNRDHRQTFMFMERAYNFAKSNRALGLGVLGWHSLLQSKRHAFDSQEAYDLNSEIFREIKQRSYKASEELAEKFGEPETLKGYGRRNATLNAIAPTTSSAFILGQVSQGIEPIWSNVYVKDIAKIKTTIKNPFLEELFEEKGMNTPEVWRSVRDNDGSVQHLEFLTEQEKDVFKTYAEIDQMAIIYQAANRQNHIDQGQSINLLVHPDMPIKEINKIHITAWKLGLKSLYYQHSMNAAQKFKQKKECVSCEA
# B2: Leeuwenhoekiella blandensis class I ribonucleotide reductase radical-generating subunit NrdBi (NrdB), wild type (enzyme, Leeuwenhoekiella blandensis MED217, UniProt A3XHF9 1-427, looked up)
# chain: MSSQEIKKIIKRDYSTAPFVLEKITNAIANAMAALGHGSEQDAKLISMQVYESLLNNKEQESEYIPTVEQVQDMVEDKLMSSEFHDVAKAYIIYRNKRALERKTNIFEKRINLKPYEYPELNEYVAAIRHSYWIHTEFNFTSDIQDFKTGLSEVERSAIKNTMLAISQIEVAVKTFWGDVHHRLPKPEIAAVGATFAESEVRHHDAYSHLLEILGLNEEFKELKKKPVIMKRVHYLETSLKHAKSDDDREYTESILLFALFIEHVSLFSQFLIIMAFNKHKNMLKGISNAVEATSKEEQIHGDFGVDIINIIKKENPEWFDEEHNNLIKEMCLNSFEAESKVVDWIFEKGELDFLPKAVINEFLKNRFNKSLEAIGLEKLFDIDEALLQETEWFDDEIIGTKHGDFFVKRSINYSKRTQSITSDDLF
# B3: Leeuwenhoekiella blandensis NrdB, thrombin-cleaved (hexahistidine tag removed), used for crystallization (enzyme, Leeuwenhoekiella blandensis MED217)
# chain: GSHMSSQEIKKIIKRDYSTAPFVLEKITNAIANAMAALGHGSEQDAKLISMQVYESLLNNKEQESEYIPTVEQVQDMVEDKLMSSEFHDVAKAYIIYRNKRALERKTNIFEKRINLKPYEYPELNEYVAAIRHSYWIHTEFNFTSDIQDFKTGLSEVERSAIKNTMLAISQIEVAVKTFWGDVHHRLPKPEIAAVGATFAESEVRHHDAYSHLLEILGLNEEFKELKKKPVIMKRVHYLETSLKHAKSDDDREYTESILLFALFIEHVSLFSQFLIIMAFNKHKNMLKGISNAVEATSKEEQIHGDFGVDIINIIKKENPEWFDEEHNNLIKEMCLNSFEAESKVVDWIFEKGELDFLPKAVINEFLKNRFNKSLEAIGLEKLFDIDEALLQETEWFDDEIIGTKHGDFFVKRSINYSKRTQSITSDDLF
# Legend:
# [1] = target: the molecule itself; assay: SEC
# [2] = target: the molecule itself; assay: SEC; remark: listed apart in the source
# [3] = target: the molecule itself; assay: GEMMA
# [4] = target: the molecule itself; assay: crystal structure
protein,measurement,setting,value
B1,stoichiometry N,[1],2
B2,stoichiometry N,[2],2
same,stoichiometry N,[3],4
B3,stoichiometry N,[4],4
